Where no end group is shown, it is not given here. [ ]: non-standard residue; d: D form.
T1: GST-tagged TRIB3 (human, UniProt Q96RU7 1-358)
T1 construct: purified recombinant TRIB3; also called TRIB3-GST; TRIB3 protein; source: bought: Sinobiological (10731-H09B), purified
T1 sequence (looked up): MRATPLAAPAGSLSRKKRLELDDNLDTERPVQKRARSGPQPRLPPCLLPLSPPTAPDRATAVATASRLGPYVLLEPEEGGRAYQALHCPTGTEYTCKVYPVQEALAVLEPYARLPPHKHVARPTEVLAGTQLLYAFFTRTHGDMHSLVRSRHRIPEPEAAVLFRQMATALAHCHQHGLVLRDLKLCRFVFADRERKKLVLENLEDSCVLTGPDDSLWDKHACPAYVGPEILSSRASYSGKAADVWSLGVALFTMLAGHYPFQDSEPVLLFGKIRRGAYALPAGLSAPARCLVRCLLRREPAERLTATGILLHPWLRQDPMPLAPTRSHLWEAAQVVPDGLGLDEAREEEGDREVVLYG

T2: UBE3B (His-tagged), recombinant (human, UniProt Q7Z3V4 1-1068)
T2 construct: recombinant UBE3B; also called purified UBE3B; source: Freestyle 293-F cells, transient transfection, purified (Ni-NTA, Superdex 200)
T2 sequence (looked up): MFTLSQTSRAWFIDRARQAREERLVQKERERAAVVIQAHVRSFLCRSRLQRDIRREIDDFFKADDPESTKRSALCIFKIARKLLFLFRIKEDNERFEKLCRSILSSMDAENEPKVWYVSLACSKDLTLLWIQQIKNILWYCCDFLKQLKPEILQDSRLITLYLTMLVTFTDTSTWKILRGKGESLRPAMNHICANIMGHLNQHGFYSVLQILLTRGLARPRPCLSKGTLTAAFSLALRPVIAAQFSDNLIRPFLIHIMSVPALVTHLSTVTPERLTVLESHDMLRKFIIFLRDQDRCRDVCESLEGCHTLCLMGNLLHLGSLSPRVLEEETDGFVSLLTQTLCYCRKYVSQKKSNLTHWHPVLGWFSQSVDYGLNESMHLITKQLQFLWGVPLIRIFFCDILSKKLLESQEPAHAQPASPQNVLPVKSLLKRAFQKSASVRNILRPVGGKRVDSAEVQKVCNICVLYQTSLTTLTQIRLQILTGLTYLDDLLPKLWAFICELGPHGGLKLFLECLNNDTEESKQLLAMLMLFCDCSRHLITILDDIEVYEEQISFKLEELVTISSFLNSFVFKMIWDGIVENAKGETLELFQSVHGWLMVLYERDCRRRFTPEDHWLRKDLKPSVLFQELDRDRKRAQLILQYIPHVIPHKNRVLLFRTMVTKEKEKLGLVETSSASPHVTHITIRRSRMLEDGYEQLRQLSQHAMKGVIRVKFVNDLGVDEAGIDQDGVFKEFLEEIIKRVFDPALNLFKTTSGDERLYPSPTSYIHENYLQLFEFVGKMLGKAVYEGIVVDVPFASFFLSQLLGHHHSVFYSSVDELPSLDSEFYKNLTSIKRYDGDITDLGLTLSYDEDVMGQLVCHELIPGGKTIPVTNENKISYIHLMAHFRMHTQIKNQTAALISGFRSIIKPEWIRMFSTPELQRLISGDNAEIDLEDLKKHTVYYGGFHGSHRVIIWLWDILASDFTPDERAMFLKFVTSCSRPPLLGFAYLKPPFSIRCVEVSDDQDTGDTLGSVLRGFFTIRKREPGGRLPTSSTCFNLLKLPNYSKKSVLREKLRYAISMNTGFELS


Columns and labels:
GST-tagged TRIB3 = target: T1, GST-tagged TRIB3; experiment: SPR; BIAcore T200; TRIB3 immobilised directly on a CM5 chip; 0–200 nM peptide passed over; HBS-EP pH 7.4, 25 °C, 25 μl/min; details: both partners purified
[1] = target: T2, UBE3B (His-tagged), recombinant; experiment: co-IP; in vitro co-IP: purified His-tagged UBCH3 (5 μg) and His-tagged UBE3B (5 μg) with GST-tagged TRIB3 or the KD(C) domain; 1% NP-40, 120 mM NaCl, 40 mM tris-HCl pH 7.4, 6 h at 4 °C; details: both partners purified

Binder | Kd (GST-tagged TRIB3) [nM] | binding result [1]
[dK][dR][dR][dE][dQ][dL][dK][dH][dK][dL][dE][dQ][dL][dR] (α-helical peptide derived from the C terminus of MYC; source: synthetic peptide (Chinese Peptide Inc., >98% purity)) [CM4 peptide] | 76.4 | –
purified His-tagged UBCH3 (enzyme, UniProt P49427 1-236, looked up, UBCH3 (CDC34), purified; also called UBCH3 (E2); UHCH3) MARPLVPSSQKALLLELKGLQEEPVEGFRVTLVDEGDLYNWEVAIFGPPNTYYEGGYFKARLKFPIDYPYSPPAFRFLTKMWHPNIYETGDVCISILHPPVDDPQSGELPSERWNPTQNVRTILLSVISLLNEPNTFSPANVDASVMYRKWKESKGKDREYTDIIRKQVLGTKVDAERDGVKVPTTLAEYCVKTKAPAPDEGSDLFYDDYYEDGEVEEEADSCFGDDEDDSGTEES | – | binds
